Measured values taken from the DeepSol protein solubility set.

Assay: soluble on expression in E. coli; label from the status in PepcDB or PDB records

Sequence | soluble on expression in E. coli
MAHHHHHHMPSLNNNTIREDVIFKRRVKDVLLRHGGTGGLVKVLIDFNAREAVAARQQRQTTSTDSGSSRTDVGLSHAQLLLFLQDYGVELTPFEAAYLCRAFDDHGSGFISGETFTRHLTGLNERRLRAVKKAWQSLERRNGASGKVSRELLLSTFAAVAAERAHAAAGDPGNPADGAAHDAIATTSFSSPVGGALQSTFGGGHGMHEHLKEAYMTSMMGRGSGFMAKPNAAAGGADGESGEAADRVSYAEYLAFYAGVSPQFATDEAFVTHVLQSWAADDAARPALDETAREWGPDGDPLALDGPRYVKEALNLELGISSKSYNYSHMQREHPYVEPLPPLNRPDIMATTMQRTYVPFDKAAQMLADPLVTRRGQSK | not soluble
MAHHHHHHMQEVMQKALAGRYDPLPPTISPEMTEVVTSLLCGDPHARPSSSKLLNMPICKLFVSGLLEIVQTQPSFAGPLRDTISTHIQSVKQSLKEERRVTVRQMEESQSAAAASTTILEGATPMGSVGDLTLYEGIVKKQSGDLAWKRRYLCIRGALEEGERLDVGRMPKFKSLDLVLAVSKETMRQQCITTPFSELEDVFPVASKYTGSNAQHVFAVAFKTGRRLLFQARGDPERDAWMQKIQQTLGIDEAD | not soluble
MAHHHHHHMQRYLQRTVPVAPLRLSISGNSSTEGVHADAAPLLESRFLRRLRAEVDREARAEQLCKGTAARAIQQAFRRWAQTRQLQHRHLSIHGIVRPRCEFDPIRAAELDAALCSIQASLRVWASSRLVEARRLKLLQQITSSVLDPACRTTLRCAASIRHINDRQLREVLCRQEAVERRDLLRRHFVFLVCCHQAFFNDPRMWDAGMSIRRIPLYTHHGLLSAETLPVIWGTRTSSSTLNSATEDSVALRGDAVASPLPPESSSFSVTATVDGCIKGWGSPAEPGSSLLEAVGSDWLVGKEEDGGGFDIDAALRLGEYRLLFSPEEWRLLKKLKASSPHPASPLLSSGADGRRAARDAAGLPEAEAGALAAPRGQLQMAPTEAAAKSACSLSYAKAFASALTFLRQPRMVDPSVRCTVQRLNDIRSSTLEMQQELRVHGYLFAAQVAPLLILGFHYQGLARGDADLSCFTTTSAMKTCRPLVAGRVACAATELRRCLIGAVHYSGGAAESVLPVALEEHKCSGKAAARTLSQRLPPAGVSRSMLLPPRAAPTAGLMRDGFANPGTEALYHAPAKTTRRAGGADPRCGSSHTASRHGSAIRVALAAEWSRRLASSADEVGPYWCEFLSSTGLDGLVTAAGRRGETPGEADAAYQTRASLPSPPLPTRVRRGLESHLVHGGSSYLLQDFMPSLMRRRAHSRAGPQPLDAATGSVVVAVACAGASPSTSVSTSTCGMVHAGEWWDAVERLLLREYTNRRELLTNEAVQRSSIDILRCTAHPSADESVAGV | not soluble
MAHHHHHHMRARRWWHGPYSLLYTLNLLLSLSLSPSHAGGGKEVSTTHTYTHPSTMQRGANVRPIKLAEKVFSTKTVCPTAASQLYVAHGLLGNSGNWATASRHLVEHSALKDKLRRAIAVDMRNHGSSTHSSDHTNAALASDLEALVLREQQELDRAFCDPSSCTTRNAILIGHSMGGLTVMGALLRRANEHHLLTSLVDHCDDVGSTSSYGAWPAEHRRQCIAGMRAVNEEFGFASSQPIAEVLFNNCRASSSLSTGSGNASRIPLLGRVAGAIIVDVTPTMRLGEQRSCADNVKETLERMTQVRLDEIHSYKDATAELIRVGMADEEMRAFVATNIALDPKDKSKPAQWKCNLPVLAGDYGSFQPSITSWFTSSATTMGPASSAAAPRLCTLPVMFVFGGESPYNEPDHRQHISRFFSNATQVEVAGAGHFVHYEKPKEFTDAVAPFIASLISQP | not soluble
MAHHHHHHMRERKPIRKMKRSRVSDQIIRVEEPDAEEGEASPAKATPVPHFSDRRICINVGGEYITTLASTLCSEPSKFSEWVENNFQGLPRDSMGNPFIDRDPENFRQIISYLRGYELPTATEKIVFLAEDAEYYHIDRLLALINPPAEWRFVSGPGVSSSRKEFSTENILATCGNEPLPQVGKSVFLLRIDKCELVSIGLVGTESPDHDEPLERQTNAIAYRSTGELIRSLNSSSTFFSGNGYKGRDTVMVQVLFKPEGAAQIEFFCNDVKTHETEWLSPVPPLRFAVSLHGVSAVVIERCVAGVKDEDM | not soluble
MAHHHHHHMRGKRRQHRELYQAVLREQAAKAQEDAAQRRARLSWKEKLQLSFQEARESVTQLTSAKAGVMALLQHCTASHTAEVALEQGIDVKNVQMVFEKAAASNSVGVEEIVVGYIDAPGASHEEVMAFAEKLHKVCPVAKSMHIEWRQGSADSRRHEDGAVRRADGLHREMEQAASGVEWAESRTGSNLGGRSSAADAASTTSVESMPAGMPGSRRVQSSMSSRATRGGSLRDDEDKLHFPGVEKRDTAWDSTRHGSSRAKEPSTETSTASHRPPPPESASAATTQPGACSSDPASASPFPKP | soluble
MAHHHHHHMSAEQQRLKKMHCEAVTLAEMKQWLGLPLTTAASSSSAAPAAAAVAAAPKSPVEEAVGRDVYDMYGLSMTAVDAYLLRYLRSKNLVIEDAVAKLRRRRAFERTLPMISVTTTTVAALRSGAFHLLDHDLEGRPVLYINVATFTLPTLELDEAQRLLIILLEFMQARCLLKNNEKVAAMQRRRRQHVDATAAASSFANGGRENNGGAAAPAHGAQDVDKETVSDLQEFALLVNEERVPWMMHASFLKNYSTLLSILPKYYPLLLGSVLVLGASLEIRTAIKACVGSSSEDVRNSVQMIEKADLPRYMDASTIPVELGGHKQIVGSAMNFSETVLRHWFTLTSQIEDECVGSDGGIADSKVPTTISAAGAANGHREDGGGAETSHSPPRPLYVPPPPLGMTQRHISRQRHAVELQHLSSSVVGTITGPGSPGPMRPCKYGGSSARNGKHSLMSSAAAANRSTAVTTPHGTPTSQKDQAAATVTLGAGRAEDVTDDGVCSALSGADERDDYAENEGGGAGMHTRTNSGVPTYQLYTAASSLAGSLAVEGEMHLSGLGASHNRHHQGASLYSVASATISREEAAHFADHPDDAVVALRQERRRRQRAEQALYFRDLGVTLDMRNASIIEKELAAIHQDLNVLVAEILVKAEAARKRQKAPPTLKQLLDLTLTAFESVTCTPSSVPAMALAEPAQREAASSSCCSFM | not soluble
MAHHHHHHMSAGDTPVSLFLQACNQEGVKTPNPKLVEFFQSHETFDSILEIDLSNNYIGNRGLLAVLGVIEHLSCFRCLNAMDQKLYNSDFSEEAVKGNAVIDRIVEVFKVHPTANSLNLSNNPISNYAGRKLLSLAQVNRRMCLIEVSDTRIDFDLRNKIAKQCEENTRNMWDAEQDENANSCAVFGENLEWVPTQATADLTSLGAGRARRQTVRVEGIDPEAAKNYVPPVHEKSQEDTDMICKLLSHNVLFGFLGSKDILTVAGAMYREEFVKDERIIEFGQTHCDKLYVIQSGEADVIKEGQKVFVKTEGTAVGELELLYDTPAVATVKVSTEVLVAWVLDRETYRNLVMGSCIRRRETYMSMLAKVPFLQSLDAYERMQIADALTSDEFAAGDYIIHYDEEGEWLYIIIEGTVEVIGRDAAGNKTKVCEFHSGDHIGELEFLNKHRTVADIVAVTGVTTAKLNRRHFEMCMGPVMDVLKRNSTSAKYDYYQQVLQQQQQGAPAAVQ | soluble
MAHHHHHHMSCLNVQPVQLPITNKFRNLPAGKPSHRHESTFCRFFSDTTEKECKGSRRNINHRNKSSIFDNVEENDIIDNTKINQYNNVKKRFVSNNSLEFKKTFQKNINYVPNEKYGKKNIPDVRNLYIFSRQELNSDTKERKSSKKISNYSLEKNPNKWGVDVLKYNLPSPKKIYRHVDNLTTCLVPKISEDSFIPKKNKKYYVTHLEKSLCPKENILLLNSKKKLIHLHQSKLEMNCVPKDYEQEINKNKPVFLERNLNNNLIPIVECKRRTFHVNDTCKNKQCSINFSCERKPSPFRSGKRIGYIFTRNDNPTFFF | not soluble
MAHHHHHHMSDDIMNGDTLSEYRKIHKKNYEERIIKENELIEKQKTEELLNEKKKNEEIYRQLQIDKDREYSKQCYYEINNFQNIHERTYNDSDIRENYTQRLINPSAYSYIDNNMTQNLLDGDMGYTFSQRIRRFFLNK | not soluble
MAHHHHHHMSDEAARQQRSAELADQVRTFFATYAGSAEERLDVVRGYEKCRGDFKKMVREYLLFDNGVEAEVQRLHRLVSTLIELGNLSPTPAWKSTSTPEALLRLEKAMHRERQEAENVLKDMAGSGTGAAGAADGDLSSLQVMIRQRQQSSYESMLNHLESKYVTKKSNARESSSAHVRPHRPLARTNVLPKSTGKPLITGKSGTCAEEASASGIRPGNVGRIPLSTAVIFCFLCYCGRYRSWLNACDLSPHLLTQPPKFPAWLRGQPITVL | soluble
